Measurements: the supplement of paper PMC11246515
± gives the standard deviation of the averaged measurements.

Test: total protein half-life in vivo (active degradation + dilution); higher = more stable protein
[1] = E. coli NCM3722 delta-clpP delta-lon delta-hslV, growth: N-lim chemostat, doubling time 6 h
[2] = E. coli NCM3722 delta-clpP, growth: N-lim chemostat, doubling time 6 h
[3] = E. coli NCM3722 delta-hslV, growth: N-lim chemostat, doubling time 6 h
[4] = E. coli NCM3722 delta-lon, growth: N-lim chemostat, doubling time 6 h
[5] = E. coli NCM3722 delta-smpB, growth: N-lim chemostat, doubling time 6 h
[6] = wild type E. coli NCM3722, growth: C-lim chemostat, doubling time 3 h
[7] = wild type E. coli NCM3722, growth: C-lim chemostat, doubling time 6 h
[8] = wild type E. coli NCM3722, growth: C-lim chemostat, doubling time 12 h
[9] = wild type E. coli NCM3722, growth: N-lim chemostat, doubling time 6 h
[10] = wild type E. coli NCM3722, growth: N-lim chemostat, doubling time 12 h
[11] = wild type E. coli NCM3722, growth: P-lim chemostat, doubling time 6 h
[12] = wild type E. coli NCM3722, growth: P-lim chemostat, doubling time 12 h

| Sequence | total protein half-life in vivo [1] [h] | total protein half-life in vivo [2] [h] | total protein half-life in vivo [3] [h] | total protein half-life in vivo [4] [h] | total protein half-life in vivo [5] [h] | total protein half-life in vivo [6] [h] | total protein half-life in vivo [7] [h] | total protein half-life in vivo [8] [h] | total protein half-life in vivo [9] [h] | total protein half-life in vivo [10] [h] | total protein half-life in vivo [11] [h] | total protein half-life in vivo [12] [h] |
| --- | --- | --- | --- | --- | --- | --- | --- | --- | --- | --- | --- | --- |
| MSRKDLANAIRALSMDAVQKANSGHPGAPMGMADIAEVLWNDFLKHNPTDPTWYDRDRFILSNGHASMLLYSLLHLTGYDLPLEELKNFRQLHSKTPGHPEIGYTPGVETTTGPLGQGLANAVGLAIAERTLAAQFNQPDHEIVDHFTYVFMGDGCLMEGISHEVCSLAGTLGLGKLIGFYDHNGISIDGETEGWFTDDTAKRFEAYHWHVIHEIDGHDPQAVKEAILEAQSVKDKPSLIICRTVIGFGSPNKAGKEEAHGAPLGEEEVALARQKLGWHHPPFEIPKEIYHAWDAREKGEKAQQSWNEKFAAYKKAHPQLAEEFTRRMSGGLPKDWEKTTQKYINELQANPAKIATRKASQNTLNAYGPMLPELLGGSADLAPSNLTIWKGSVSLKEDPAGNYIHYGVREFGMTAIANGIAHHGGFVPYTATFLMFVEYARNAARMAALMKARQIMVYTHDSIGLGEDGPTHQAVEQLASLRLTPNFSTWRPCDQVEAAVGWKLAVERHNGPTALILSRQNLAQVERTPDQVKEIARGGYVLKDSGGKPDIILIATGSEMEITLQAAEKLAGEGRNVRVVSLPSTDIFDAQDEEYRESVLPSNVAARVAVEAGIADYWYKYVGLKGAIVGMTGYGESAPADKLFPFFGFTAENIVAKAHKVLGVKGA | 4.98 ± 0.07 | 5.07 ± 0.55 | 4.95 ± 0.06 | 5.06 ± 0.13 | 4.75 ± 0.27 | 3.08 ± 0.16 | 5.63 ± 0.22 | 10.8 ± 0.69 | 4.52 ± 0.16 | 8.32 ± 0.16 | 5.83 ± 0.35 | 11.5 ± 0.12 |
| MSRLVVVSNRIAPPDEHAASAGGLAVGILGALKAAGGLWFGWSGETGNEDQPLKKVKKGNITWASFNLSEQDLDEYYNQFSNAVLWPAFHYRLDLVQFQRPAWDGYLRVNALLADKLLPLLQDDDIIWIHDYHLLPFAHELRKRGVNNRIGFFLHIPFPTPEIFNALPTYDTLLEQLCDYDLLGFQTENDRLAFLDCLSNLTRVTTRSAKSHTAWGKAFRTEVYPIGIEPKEIAKQAAGPLPPKLAQLKAELKNVQNIFSVERLDYSKGLPERFLAYEALLEKYPQHHGKIRYTQIAPTSRGDVQAYQDIRHQLENEAGRINGKYGQLGWTPLYYLNQHFDRKLLMKIFRYSDVGLVTPLRDGMNLVAKEYVAAQDPANPGVLVLSQFAGAANELTSALIVNPYDRDEVAAALDRALTMSLAERISRHAEMLDVIVKNDINHWQECFISDLKQIVPRSAESQQRDKVATFPKLA | 5.02 ± 0.71 | 4.68 ± 0.38 | 2.95 ± 0.046 | 3.23 ± 0.4 | 2.85 ± 0.093 | 2.4 ± 0.054 | 3.858 ± 0.033 | 6.061 ± 0.06 | 3.02 ± 0.29 | 4.47 ± 0.49 | 3.72 ± 0.24 | 6.83 ± 0.3 |
| MSRMAEQQLYIHGGYTSATSGRTFETINPANGNVLATVQAAGREDVDRAVKSAQQGQKIWASMTAMERSRILRRAVDILRERNDELAKLETLDTGKAYSETSTVDIVTGADVLEYYAGLIPALEGSQIPLRETSFVYTRREPLGVVAGIGAWNYPIQIALWKSAPALAAGNAMIFKPSEVTPLTALKLAEIYSEAGLPDGVFNVLPGVGAETGQYLTEHPGIAKVSFTGGVASGKKVMANSAASSLKEVTMELGGKSPLIVFDDADLDLAADIAMMANFFSSGQVCTNGTRVFVPAKCKAAFEQKILARVERIRAGDVFDPQTNFGPLVSFPHRDNVLRYIAKGKEEGARVLCGGDVLKGDGFDNGAWVAPTVFTDCSDDMTIVREEIFGPVMSILTYESEDEVIRRANDTDYGLAAGIVTADLNRAHRVIHQLEAGICWINTWGESPAEMPVGGYKHSGIGRENGVMTLQSYTQVKSIQVEMAKFQSIF | 5.11 ± 0.25 | 5.45 ± 1.3 | 5.06 ± 0.11 | 5.28 ± 0.61 | 4.486 ± 0.038 |  | 5.21 ± 0.24 | 11.1 ± 0.13 | 4.37 ± 0.14 | 7.63 ± 0.23 | 6 ± 0.24 | 11.7 ± 0.46 |
| MSRNTEATDDVKTWTGGPLNYKEGFFTQLATDELAKGINEEVVRAISAKRNEPEWMLEFRLNAYRAWLEMEEPHWLKAHYDKLNYQDYSYYSAPSCGNCDDTCASEPGAVQQTGANAFLSKEVEAAFEQLGVPVREGKEVAVDAIFDSVSVATTYREKLAEQGIIFCSFGEAIHDHPELVRKYLGTVVPGNDNFFAALNAAVASDGTFIYVPKGVRCPMELSTYFRINAEKTGQFERTILVADEDSYVSYIEGCSAPVRDSYQLHAAVVEVIIHKNAEVKYSTVQNWFPGDNNTGGILNFVTKRALCEGENSKMSWTQSETGSAITWKYPSCILRGDNSIGEFYSVALTSGHQQADTGTKMIHIGKNTKSTIISKGISAGHSQNSYRGLVKIMPTATNARNFTQCDSMLIGANCGAHTFPYVECRNNSAQLEHEATTSRIGEDQLFYCLQRGISEEDAISMIVNGFCKDVFSELPLEFAVEAQKLLAISLEHSVG | 4.92 ± 0.3 | 2.89 ± 0.11 | 1.46 ± 0.085 | 1.98 ± 0.2 | 1.58 ± 0.085 | 1.85 ± 0.4 | 3.12 ± 0.02 | 4.99 ± 0.85 | 1.51 ± 0.56 | 2.29 | 3.223 ± 0.00026 | 5.113 ± 0.048 |
| MSRPLLQLALDHSSLEAAQRDVTLLKDSVDIVEAGTILCLNEGLGAVKALREQCPDKIIVADWKVADAGETLAQQAFGAGANWMTIICAAPLATVEKGHAMAQRCGGEIQIELFGNWTLDDARDWHRIGVRQAIYHRGRDAQASGQQWGEADLARMKALSDIGLELSITGGITPADLPLFKDIRVKAFIAGRALAGAANPAQVAGDFHAQIDAIWGGARA | 4.65 | 4 | 4.08 ± 0.35 | 4.77 | 4.3 ± 0.38 | 3.07 ± 0.25 | 5.17 ± 0.32 | 9.07 ± 0.79 | 3.93 | 6.66 ± 0.91 | 5.76 | 9.91 ± 0.32 |
| MSRRAGTPTAKKVTQLVNVEEHVEGFRQVREAHRRELIDDYVELISDLIREVGEARQVDMAARLGVSQPTVAKMLKRLATMGLIEMIPWRGVFLTAEGEKLAQESRERHQIVENFLLVLGVSPEIARRDAEGMEHHVSEETLDAFRLFTQKHGAK [P0A9F1] | 5.72 ± 0.35 | 5.64 ± 0.32 | 4.73 ± 0.12 | 6 ± 0.3 | 5.06 ± 0.61 | 3 ± 0.046 | 5.03 ± 0.24 | 12 ± 5.5 | 4.66 ± 0.23 | 9.78 ± 2.5 | 3.96 ± 0.21 | 8.06 ± 0.26 |
| MSRRNTDAITIHSILDWIEDNLESPLSLEKVSERSGYSKWHLQRMFKKETGHSLGQYIRSRKMTEIAQKLKESNEPILYLAERYGFESQQTLTRTFKNYFDVPPHKYRMTNMQGESRFLHPLNHYNS [P0ACH5] | 3.42 ± 0.064 |  |  | > 8 |  |  |  |  |  |  |  |  |
| MSSEKLYSPLKVGAITAANRIFMAPLTRLRSIEPGDIPTPLMAEYYRQRASAGLIISEATQISAQAKGYAGAPGIHSPEQIAAWKKITAGVHAENGHMAVQLWHTGRISHASLQPGGQAPVAPSALSAGTRTSLRDENGQAIRVETSMPRALELEEIPGIVNDFRQAIANAREAGFDLVELHSAHGYLLHQFLSPSSNHRTDQYGGSVENRARLVLEVVDAGIEEWGADRIGIRVSPIGTFQNTDNGPNEEADALYLIEQLGKRGIAYLHMSEPDWAGGEPYTDAFREKVRARFHGPIIGAGAYTVEKAETLIGKGLIDAVAFGRDWIANPDLVARLQRKAELNPQRAESFYGGGAEGYTDYPTL | 5.08 ± 0.17 | 2.14 ± 0.038 | 1.51 ± 0.027 |  | 1.5 ± 0.061 | 2.13 ± 0.48 | 2.98 ± 0.53 | 3.17 ± 0.57 | 1.66 ± 0.12 | 2.097 ± 0.015 | 1.55 ± 0.16 | 2.85 ± 1.7 |
| MSSKVERERRKAQLLSQIQQQRLDLSASRREWLETTGAYDRRWNMLLSLRSWALVGSSVMAIWTIRHPNMLVRWARRGFGVWSAWRLVKTTLKQQQLRG | 5.54 ± 0.84 |  | 6 ± 0.61 | 4.6 ± 1.6 | 5.78 ± 0.53 | 2.56 ± 0.29 | 4.85 ± 0.21 | 8.71 | 5.6 ± 1.8 | 11.4 | 4.85 | 10.2 ± 0.32 |
| MSSLPVAAVLPELLTALDCAPQVLLSAPTGAGKSTWLPLQLLAHPGINGKIILLEPRRLAARNVAQRLAELLNEKPGDTVGYRMRAQNCVGPNTRLEVVTEGVLTRMIQRDPELSGVGLVILDEFHERSLQADLALALLLDVQQGLRDDLKLLIMSATLDNDRLQQMLPEAPVVISEGRSFPVERRYLPLPAHQRFDDAVAVATAEMLRQESGSLLLFLPGVGEIQRVQEQLASRIGSDVLLCPLYGALSLNDQRKAILPAPQGMRKVVLATNIAETSLTIEGIRLVVDCAQERVARFDPRTGLTRLITQRVSQASMTQRAGRAGRLEPGISLHLIAKEQAERAAAQSEPEILQSDLSGLLMELLQWGCSDPAQMSWLDQPPVVNLLAAKRLLQMLGALEGERLSAQGQKMAALGNDPRLAAMLVSAKNDDEAATAAKIAAILEEPPRMGNSDLGVAFSRNQPAWQQRSQQLLKRLNVRGGEADSSLIAPLLAGAFADRIARRRGQDGRYQLANGMGAMLDANDALSRHEWLIAPLLLQGSASPDARILLALLVDIDELVQRCPQLVQQSDTVEWDDAQGTLKAWRRLQIGQLTVKVQPLAKPSEDELHQAMLNGIRDKGLSVLNWTAEAEQLRLRLLCAAKWLPEYDWPAVDDESLLAALETWLLPHMTGVHSLRGLKSLDIYQALRGLLDWGMQQRLDSELPAHYTVPTGSRIAIRYHEDNPPALAVRMQEMFGEATNPTIAQGRVPLVLELLSPAQRPLQITRDLSDFWKGAYREVQKEMKGRYPKHVWPDDPANTAPTRRTKKYS | 5.57 ± 0.07 | 5.56 ± 0.99 | 3.91 ± 0.046 | 4.29 ± 0.098 | 4.21 ± 0.25 | 2.8 ± 0.11 | 4.648 ± 0.041 | 9.65 ± 3.8 | 3.97 ± 0.26 | 6.433 ± 0.061 | 4.905 ± 0.044 | 9.09 ± 0.45 |
